Results from patent US9981005.
pKd: −log10 of the molar value.

Target: Skp1-FBXW7 complex (human FBXW7 residues 263-707 with truncated Skp1) (human) (UniProt P63208)
Test: isothermal titration calorimetry, Skp1-FBXW7, 25 °C

Skp1-FBXW7 complex (human FBXW7 residues 263-707 with truncated Skp1) (human), sequence (chain, as listed by the source limits assumed, chain 1 of 2): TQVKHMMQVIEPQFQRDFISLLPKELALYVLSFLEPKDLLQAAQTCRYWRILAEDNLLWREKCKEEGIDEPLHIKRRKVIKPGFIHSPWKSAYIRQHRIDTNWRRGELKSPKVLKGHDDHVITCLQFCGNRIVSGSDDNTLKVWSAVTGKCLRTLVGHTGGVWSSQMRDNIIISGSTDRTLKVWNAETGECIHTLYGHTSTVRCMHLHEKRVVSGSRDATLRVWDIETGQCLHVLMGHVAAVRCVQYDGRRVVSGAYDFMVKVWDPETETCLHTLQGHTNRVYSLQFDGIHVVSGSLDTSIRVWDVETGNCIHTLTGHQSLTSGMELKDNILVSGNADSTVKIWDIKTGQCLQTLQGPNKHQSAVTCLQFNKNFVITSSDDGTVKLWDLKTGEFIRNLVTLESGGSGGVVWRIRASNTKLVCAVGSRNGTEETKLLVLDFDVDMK
Skp1-FBXW7 complex (human FBXW7 residues 263-707 with truncated Skp1) (human), sequence (P63208 whole entry, chain 2 of 2, the tested form may be a part): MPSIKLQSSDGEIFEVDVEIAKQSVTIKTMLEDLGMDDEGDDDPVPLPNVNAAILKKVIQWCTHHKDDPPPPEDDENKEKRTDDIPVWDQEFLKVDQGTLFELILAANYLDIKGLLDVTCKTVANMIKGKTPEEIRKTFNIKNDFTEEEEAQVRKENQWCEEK

pKd: 6.00
Substance: doubly-phosphorylated test peptide VPPpTPPGpSH
